Patent publication US20120148607A1 (ARGEN X N V, published 2012)

How the values were obtained:
[1] = biological target: T1, Decoy c-Met (extracellular domain of human c-Met) (human, UniProt P08581 25-932); test: SPR: mAb (0.5 µg/ml) kept 1 h at the given temperature, run over a CM-5 chip coupled with 15,000-17,000 RU Decoy c-Met; slope between 100 and 130 s at 30 µl/min in percent of the sample kept at 4 °C
T1 construct: extracellular domain; also called Decoy Met; monomeric Decoy Met

[2] = biological target: T1, Decoy c-Met (extracellular domain of …); test: binding ELISA, human c-Met (Decoy)
[3] = biological target: T2, Rhesus (Maccaca mulatta, US20090191580-5) c-Met ECD (Rhesus (Maccaca mulatta)); test: binding ELISA, Rhesus c-Met ECD immobilised (1 µg/ml)
T2 construct: extracellular domain; also called Rhesus c-Met ECD; Rhesus ECD
Experimental: Cross reactivity to Rhesus (Maccaca mulatta, US20090191580_{—}5) c-Met ECD and mouse c-Met (R&D systems cat no: 527-ME) was performed in a binding ELISA. Rhesus ECD was immobilized in PBS (1 μg/ml) on a 96-well maxisorb plate and incubated at 4° C. over night. After blocking with 1% casein in PBS, the antibodies in dilutions starting with 10 μg/ml were added and allowed to bind for 1 h at room temperature. The plate was washed and a goat anti-human Fcγ antibody (Jackson) was added and incubated for 1 h at room temperature. After washing, TMB was added and the plate read at 620 nm

[4] = biological target: T3, recombinant dimeric c-Met (R&D systems, 358-MT/CF) (human, UniProt P08581 25-932); test: competition ELISA: recombinant dimeric c-Met (100 ng/ml) captured by coated mouse anti-His antibody; antibody dilutions 30 min, then 25 ng/ml N-terminally biotinylated HGF (the competitor); strep-HRP, TMB, 620 nm; percent competition against the controls
T3 construct: Bought product; also called Fc-Met; recombinant c-Met
Experimental: Competition with N-terminally biotinylated HGF for binding to immobilized c-Met was performed using an ELISA-based competition assay. Five μg/ml mouse anti-His antibodies (Serotech) was immobilized on a maxisorb plate and, after blocking with 1% casein in PBS for 2 h, 100 ng/ml recombinant dimeric c-Met was added and incubated for 1 h at room temperature. After washing, dilutions of the antibodies were added and allowed to bind to the captured c-Met for 30 minutes, before 25 ng/ml N-terminally biotinylated HGF (R&D systems, 294-HGN/CF) was added. Biotinylated HGF was incubated at room temperature for 1 h before washing. Horseradish-conjugated streptavidin (strep-HRP) was added and incubated for an additional hour. TMB was added and the plate read at 620 nm. An isotype control (hIgG1λ) was included as a control as well as murine 5D5 antibody. Competition was expressed as percentage competition as compared to the controls (strep-HRP only or hIgG1λ) and plotted against the concentration of antibodies. An IC₅₀ was calculated using GraphPad Prism (Table 10). Antibodies 13E6 and 20A11 only displaced HGF partially (about 50%), which may be related to the epitope these two mAbs recognize on the c-Met.

[5] = biological target: T3, recombinant dimeric c-Met (R&D systems, …); test: SPR, Fab-containing periplasmic extract over immobilised c-Met, dissociation 2 min
Experimental: HGF-competing clones were sequenced in the VH and the VL regions and divided into VH families based on the sequence of the CDR3 in the VH. These VH families were further tested with Surface Plasmon Resonance (SPR) for dissociation (koff) and recognition of SEMA-PSI or the extracellular domain of c-Met (Decoy). Between 1000-2000 RU of dimeric c-Met, SEMA-PSI or Decoy c-Met was immobilised on a VIA chip with amine coupling in sodium acetate buffer (pH 4.5). The Fab-containing peris were added with a flow rate of 30 μl/min and Fabs were considered to be binding if an increase of the RU was observed. The koff was measured for 2 minutes for each sample.

[6] = biological target: T3, recombinant dimeric c-Met (R&D systems, …); test: SPR, periplasmic Fab over Fc-Met (around 3000 RU) on CM5 chip
Experimental: The clones were then tested for their dissociation constants by Surface Plasmon Resonance. Around 3000 RU of Fc-Met was immobilized directly onto a CM5 chip to obtain a clear binding profile from the periplasmic extracts. Clones with an improved off-rate were sent for sequencing.

T3 sequence (P08581 25-932 limits assumed): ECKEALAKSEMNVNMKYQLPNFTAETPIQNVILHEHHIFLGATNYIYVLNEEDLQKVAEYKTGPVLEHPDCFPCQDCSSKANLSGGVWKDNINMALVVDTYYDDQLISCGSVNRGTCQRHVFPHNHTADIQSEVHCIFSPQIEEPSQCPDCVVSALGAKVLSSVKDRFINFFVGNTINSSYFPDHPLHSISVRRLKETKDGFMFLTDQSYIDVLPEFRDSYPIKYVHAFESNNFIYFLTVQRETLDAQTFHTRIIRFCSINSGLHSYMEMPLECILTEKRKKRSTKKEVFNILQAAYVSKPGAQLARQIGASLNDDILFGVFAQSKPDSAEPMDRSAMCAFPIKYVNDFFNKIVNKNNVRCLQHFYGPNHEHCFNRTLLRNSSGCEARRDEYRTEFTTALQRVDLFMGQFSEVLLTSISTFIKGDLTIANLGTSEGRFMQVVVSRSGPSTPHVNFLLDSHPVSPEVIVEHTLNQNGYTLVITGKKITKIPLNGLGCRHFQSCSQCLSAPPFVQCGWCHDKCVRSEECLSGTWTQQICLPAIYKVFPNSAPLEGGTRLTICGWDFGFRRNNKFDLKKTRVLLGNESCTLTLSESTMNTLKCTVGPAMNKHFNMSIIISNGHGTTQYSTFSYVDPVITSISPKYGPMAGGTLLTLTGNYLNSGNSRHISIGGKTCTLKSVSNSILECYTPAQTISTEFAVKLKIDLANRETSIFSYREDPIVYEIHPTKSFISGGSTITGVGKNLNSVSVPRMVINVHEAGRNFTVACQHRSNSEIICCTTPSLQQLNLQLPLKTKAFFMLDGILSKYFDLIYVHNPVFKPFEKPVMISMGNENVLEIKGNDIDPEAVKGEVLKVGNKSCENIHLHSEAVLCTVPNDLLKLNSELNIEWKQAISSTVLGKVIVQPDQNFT
T1 sequence (P08581 25-932): as the sequence (P08581 25-932 limits assumed) above

B1: 53E3 (antibody, V domains shown)
VH: QVQLQESGPGLVKPSQTLSLTCTVSGGSITTNYYYWSWIRQSPGKGLEWIGVIAYEGSTDYSPSLKSRVTISRDTSKNQFSLQLSSVTAEDTAVYYCARDVRVIATGWATANALDAWGQGTLVTVSS
VL: QSVLTQPPSVSGSPGQTVTISCAGTSSDVGYGNYVSWYQQLPGTAPKLMIFAVSYRASGIPDRFSGSKSGNTASLTISGLQSEDEADYYCASYRSSNNAAVFGGGTKLTVL
notes: also called germlined variant of 36C4
B1: binds [1].

B2: 53A11 (antibody, V domains shown)
VH: QVQLQESGPGLVKPSQTLSLTCTVSGGSITTNYYYWSWIRQSPGKGLEWIGVIAYDASTDYSPSLKSRVTISRDTSKNQFSLQLSSVTAEDTAVYYCARDVRVIATGWATANALDAWGQGTLVTVSS
VL: QSVLTQPPSVSGSPGQTVTISCAGTSSDVGYGNYVSWYQQPPGTAPKLMIFAVSYRASGIPDRFSGSKSGNTAFLTISGLQSEDEADYYCASYRSSNNAAVFGGGTKLTVL
notes: as for B1
B2: binds [1].

B3: 38H10 mAb (antibody, V domains shown)
VH: EVQLVQPGVELRNPGASVKVSCKASGYIFTMNSIDWVRQAPGQGLEWMGRIDPEDGGTKYAQKFQGRVTFTADTSTSTAYVELNSLRSEDTAVYYCARVDDYYLGYDYWGQGTQVTVSS
VL: EIVMTQSPSSVTASAGEKVTINCKSSQSVLWRSNQKNYLAWYQQRLGQSPRLLISWASIRESGVPDRFSGSGSTTDFTLTISSFQPEDAAVYYCQQGYSFPYTFGSGTRLEIK
In the case of B3, the EC50 [2] is reported as 0.19 nM, the EC50 [3] is reported as 0.17 nM and the “IC50 (read off the curve)” value [4] is reported as roughly 0.03 nM.

B4: 34H7 mAb (antibody, V domains shown)
VH: ELQLVESGGALVQPGGSLRLSCVESGFTFSSYAMSWVRQAPGKGLEWVSGIYKGGGPKYANSVKGRFTISRDNAKNTLYLQMNSLKPEDTAVYYCAKSGYGSSLGDFGSWGQGTQVTVSS
VL: QAGLTQLSSMSGSPGQTVTITCTGSSSNIGGGYYLSWYQHLPGTAPKLLIYSNINRASGVPDRFSGSTSGISASLTITGLQAEDEADYYCSSWDDSVSGPVFGGGTSLTVL
With B4 the “IC50 (read off the curve)” value [4] was roughly 0.2 nM.

B5: murine 5D5 antibody (antibody, V domains shown)
VH: QVQLQQSGPELVRPGASVKMSCRASGYTFTSYWLHWVKQRPGQGLEWIGMIDPSNSDTRFNPNFKDKATLNVDRSSNTAYMLLSSLTSADSAVYYCATYGSYVSPLDYWGQGTSVTVSS
VL: DIMMSQSPSSLTVSVGEKVTVSCKSSQSLLYTSSQKNYLAWYQQKPGQSPKLLIYWASTRESGVPDRFTGSGSGTDFTLTITSVKADDLAVYYCQQYYAYPWTFGGGTKLEIK
With B5 the “IC50 (read off the curve)” value [4] was roughly 0.8 nM.

B6: 12G4 Fab (Fab, V domains shown)
VH: QLQLVESGGGMAQPGGSLKLSCAASGFTFDDYAMTWVRQAPGKGLEWLSTISWNDINTYYAESMKDRFTISRDNAKNTLYLQMNSLESEDTAVYYCAKRRDNYYGTSGEYDYWGQGTQVTVSS
VL: QSALTQPPSVSGTLGKTVTISCAGTSSDIGNYNYVSWYQQLPGTAPKLLIYEVNKRPSGIPDRFSGSKSGNTASLSISGLQSEDEADYYCASYRSSNNVVFGGGTKLTVL
notes: Fab from the phage display library, tested as periplasmic extract
B6 showed a koff [5] of 0.00013 s⁻¹.

B7: 13E6 Fab (Fab, V domains shown)
VH: QVQLQESGGDLVQPGGSLRLSCAASGFTFDDYVMNWVRQAPGKGLEWISAINWNGGSTYYAESMKGRFTISRDNAKNTLYLQMYSLQSDDTAVYYCVKDTVVSGNGYWGQGTQVTVSS
VL: QSVLTQPPSVSGTLGKTVTISCAGTSSDIGDYNYVSWYQQLPGTAPKLLIYDVNKRASGIPDRFSGSKSGNTASLSISGLQSEDEADYYCASYRSRNDYAFGGGTKLTVL
notes: as for B6
B7 was tested, and the koff [5] was 0.00065 s⁻¹.

B8: 20F1 Fab (Fab, V domains shown)
VH: EVQVQESGPGLVKPSQTLSLTCTVSGGSMTGNYYAWSWIRQPPGKGLEWMGVIAYDGSTYYSPSLKSRTSISRDTSKNQFSLQLSSVSPEDTAVYYCARGPGWYSGSRNDYWGQGTQVTVSS
VL: QSALTQPPSVSGSPGKTVTISCTGTNSDVGYGNYVSWYQQLPGMAPKLLIYDVNRRASGIADRFSGSKSGNTASLTISGLQSEDEGDYHCASYRSANNAVFGGGTHLFVL
notes: as for B6
For B8, the koff [5] was 0.0069 s⁻¹.

B9: 20A11 Fab (Fab, V domains shown)
VH: QVQLVESGGGLVQPGGSLRLSCAASGFTFDDYAMSWVRQAPGKGLEWVSAISWNGSSTYYAESMKGRFTISRDNAKNTLYLQMNSLKSEDTAVYYCAKDLIGSHDYWGQGTQVTVSS
VL: QAVLTQPPSVSGTLGKTLTISCAGTSSDVGYGNYVSWYQQLPGTAPKLLIYAVSTRASGIPDRFSGSKSGNTASLTISGLQSEDEADYYCASYRSSNNYAFGAGTKLTVL
notes: as for B6
B9 showed a koff [5] of 0.0009 s⁻¹.

B10: 38H10 Fab (Fab, V domains shown)
VH: EVQLVQPGVELRNPGASVKVSCKASGYIFTMNSIDWVRQAPGQGLEWMGRIDPEDGGTKYAQKFQGRVTFTADTSTSTAYVELNSLRSEDTAVYYCARVDDYYLGYDYWGQGTQVTVSS
VL: EIVMTQSPSSVTASAGEKVTINCKSSQSVLWRSNQKNYLAWYQQRLGQSPRLLISWASIRESGVPDRFSGSGSTTDFTLTISSFQPEDAAVYYCQQGYSFPYTFGSGTRLEIK
notes: as for B6
Binder B10 has a koff [6] of 0.0005 s⁻¹ and a koff [5] of 0.0012 s⁻¹.

B11: 36C4 Fab (Fab, V domains shown)
VH: QVQLVESGPGLVKPSQTLSLTCAVSGGSITTNYYYWSWIRQSPGKGLEWMGVIAYDGSTDYSPSLKSRTSISRDTSKNQFSLQLSSVTPEDTAVYYCARDVRVIATGWATANALDAWGQGTLVTVSS
VL: QSVLTQPPSVSGSPGKTVTISCAGTSSDVGYGNYVSWYQQLPGTAPKLLIFAVSYRASGIPDRFSGSKSGNTAFLTISGLQSEDEADYYCASYRSSNNAAVFGGGTHLTVL
notes: as for B6
B11 showed a koff [5] of 0.00064 s⁻¹.

B12: 49E11 VL shuffled Fab (Fab, V domains shown)
VH: QVQLVESGPGLVKPSQTLSLTCAVSGGSITTNYYYWSWIRQSPGKGLEWMGVIAYDGSTDYSPSLKSRTSISRDTSKNQFSLQLSSVTPEDTAVYYCARDVRVIATGWATANALDAWGQGTQVTVSS
VL: QAVLTQPPSVSGTLGKTVTISCAGTSSDVGYGNYVSWYQKLPGTAPKLLIYAVSYRASGIPDRFSGSKSGNTASLTISGLQSEDEADYHCASYRTSNNVAVFGGGTKLTVL
notes: VL-shuffled Fab with the 36C4Q heavy chain, periplasmic extract
With B12 the koff [6] was 0.00063 s⁻¹.

B13: 49G3 VL shuffled Fab (Fab, V domains shown)
VH: QVQLVESGPGLVKPSQTLSLTCAVSGGSITTNYYYWSWIRQSPGKGLEWMGVIAYDGSTDYSPSLKSRTSISRDTSKNQFSLQLSSVTPEDTAVYYCARDVRVIATGWATANALDAWGQGTQVTVSS
VL: QSALTQPPSVSGTLGKTLTISCAGTSTDVGYGNYVSWYQQLPGTAPKLLIFAVSYRASGIPDRFSGSKSGNTAFLTISGLQSEDEADYYCASYRSSNNAAVFGGGTHLTVL
notes: as for B12
With B13 the koff [6] was 0.00019 s⁻¹.

B14: 40B8 Fab (Fab, V domains shown)
VH: EVQLVQPGAELRNPGASVKVSCKASGYTFTNYVIDWVRQAPGQGLEWMGRIDPENGGTRYAQKFQGRVTFTADTSTSTAYVELSNLRSEDTAVYYCARLEDYELAYDYWGQGTQVTVSS
VL: DIVMTQTPSSVTASAGEKVTINCKSSQSVLLSSNQKNYLAWYQQRLGQSPRLLIYWASTRESGVPDRFSGSGSTTDFTLTISSFQPEDAAVYYCQQGVSFPLTFGQGTKVELK
notes: as for B6
In the case of B14, the koff [5] is reported as 0.0013 s⁻¹.

B15: 34H7 Fab (Fab, V domains shown)
VH: ELQLVESGGALVQPGGSLRLSCVESGFTFSSYAMSWVRQAPGKGLEWVSGIYKGGGPKYANSVKGRFTISRDNAKNTLYLQMNSLKPEDTAVYYCAKSGYGSSLGDFGSWGQGTQVTVSS
VL: QAGLTQLSSMSGSPGQTVTITCTGSSSNIGGGYYLSWYQHLPGTAPKLLIYSNINRASGVPDRFSGSTSGISASLTITGLQAEDEADYYCSSWDDSVSGPVFGGGTSLTVL
notes: as for B6
Binder B15 has a koff [5] of 0.0016 s⁻¹.
